{"source": "patent US20260184774A1", "about": "(GENOME, published 2026)", "assay_in_all_cases": "ELISA, coated CNTN4 domain sample, anti-human IgG Fc-HRP", "key": {"[1]": {"target": "T1, Human CNTN4 domain sample D1-9 (human, UniProt Q8IWV2 19-899, limits assumed)", "T1 construct": "domain: Domain 1 to Domain 9", "T1 sequence (looked up)": "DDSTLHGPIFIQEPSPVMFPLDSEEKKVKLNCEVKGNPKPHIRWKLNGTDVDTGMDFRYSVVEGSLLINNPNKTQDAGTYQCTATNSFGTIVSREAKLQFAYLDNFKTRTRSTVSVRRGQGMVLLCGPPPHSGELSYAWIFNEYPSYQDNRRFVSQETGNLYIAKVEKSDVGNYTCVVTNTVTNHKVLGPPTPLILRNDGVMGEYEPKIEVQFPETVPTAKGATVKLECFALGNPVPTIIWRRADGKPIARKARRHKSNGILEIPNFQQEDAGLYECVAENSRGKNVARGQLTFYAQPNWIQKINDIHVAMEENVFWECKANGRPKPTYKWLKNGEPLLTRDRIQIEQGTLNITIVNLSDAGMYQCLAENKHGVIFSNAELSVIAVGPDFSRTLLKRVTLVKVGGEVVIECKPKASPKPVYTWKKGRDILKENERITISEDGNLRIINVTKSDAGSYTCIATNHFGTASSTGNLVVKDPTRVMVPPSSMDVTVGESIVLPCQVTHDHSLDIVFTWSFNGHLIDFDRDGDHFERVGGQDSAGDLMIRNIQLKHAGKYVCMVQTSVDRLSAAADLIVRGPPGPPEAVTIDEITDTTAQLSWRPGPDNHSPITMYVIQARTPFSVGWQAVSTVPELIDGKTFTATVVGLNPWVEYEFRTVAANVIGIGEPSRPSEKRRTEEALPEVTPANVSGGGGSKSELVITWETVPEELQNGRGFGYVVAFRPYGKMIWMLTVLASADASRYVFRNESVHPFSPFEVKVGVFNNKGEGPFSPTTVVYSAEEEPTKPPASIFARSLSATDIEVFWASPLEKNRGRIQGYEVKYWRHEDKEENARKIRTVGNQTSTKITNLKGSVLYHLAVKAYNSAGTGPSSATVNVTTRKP", "protocol": "(§1) 50 μL of the diluted secondary antibody (Anti-human IgG Fc-HRP) was distributed to each well. The wells were sealed with sealing tape and incubated at 37° C. for 1 hour. The wells were washed tree times after Sealing tape was removed.\n(§2) 50 μL of ABTs were distributed in each well. The wells were incubated at room temperature for 30 minutes. The absorbance was detected at 405 nm by using Microplate reader."}, "[2]": {"target": "T2, Human CNTN4 domain sample D1-6 (human, UniProt Q8IWV2 19-586, limits assumed)", "T2 construct": "domain: Domain 1 to Domain 6", "T2 sequence (looked up)": "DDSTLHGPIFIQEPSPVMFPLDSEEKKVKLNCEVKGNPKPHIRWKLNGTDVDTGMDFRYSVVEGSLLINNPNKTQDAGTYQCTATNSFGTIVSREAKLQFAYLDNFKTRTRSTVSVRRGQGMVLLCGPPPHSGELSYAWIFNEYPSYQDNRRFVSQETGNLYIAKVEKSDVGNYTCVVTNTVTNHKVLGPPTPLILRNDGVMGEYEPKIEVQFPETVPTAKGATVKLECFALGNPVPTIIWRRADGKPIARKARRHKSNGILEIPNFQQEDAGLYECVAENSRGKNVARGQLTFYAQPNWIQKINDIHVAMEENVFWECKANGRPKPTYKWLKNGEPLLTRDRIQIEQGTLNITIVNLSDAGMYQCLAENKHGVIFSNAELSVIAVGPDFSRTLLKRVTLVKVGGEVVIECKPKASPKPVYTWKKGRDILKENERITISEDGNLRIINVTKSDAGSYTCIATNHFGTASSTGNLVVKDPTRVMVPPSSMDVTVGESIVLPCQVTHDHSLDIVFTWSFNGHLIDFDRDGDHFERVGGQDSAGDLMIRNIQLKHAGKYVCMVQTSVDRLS", "protocol": "as §1, §2"}, "[3]": {"target": "T3, Human CNTN4 domain sample D1-5 (human, UniProt Q8IWV2 19-493, limits assumed)", "T3 construct": "domain: Domain 1 to Domain 5", "T3 sequence (looked up)": "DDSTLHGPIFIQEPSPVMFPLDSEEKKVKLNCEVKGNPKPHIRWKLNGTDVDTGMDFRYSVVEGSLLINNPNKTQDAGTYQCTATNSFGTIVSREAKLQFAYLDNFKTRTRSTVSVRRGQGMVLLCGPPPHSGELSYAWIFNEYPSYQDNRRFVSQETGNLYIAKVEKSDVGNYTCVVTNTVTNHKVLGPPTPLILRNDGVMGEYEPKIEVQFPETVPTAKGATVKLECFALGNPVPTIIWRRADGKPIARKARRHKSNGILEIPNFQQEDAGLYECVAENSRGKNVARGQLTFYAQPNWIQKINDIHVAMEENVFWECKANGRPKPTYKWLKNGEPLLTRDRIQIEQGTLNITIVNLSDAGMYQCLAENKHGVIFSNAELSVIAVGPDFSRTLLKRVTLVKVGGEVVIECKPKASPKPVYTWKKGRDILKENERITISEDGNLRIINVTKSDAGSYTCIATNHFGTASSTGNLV", "protocol": "as §1, §2"}, "[4]": {"target": "T4, Human CNTN4 domain sample D1-4 (human, UniProt Q8IWV2 19-400, limits assumed)", "T4 construct": "domain: Domain 1 to Domain 4", "T4 sequence (looked up)": "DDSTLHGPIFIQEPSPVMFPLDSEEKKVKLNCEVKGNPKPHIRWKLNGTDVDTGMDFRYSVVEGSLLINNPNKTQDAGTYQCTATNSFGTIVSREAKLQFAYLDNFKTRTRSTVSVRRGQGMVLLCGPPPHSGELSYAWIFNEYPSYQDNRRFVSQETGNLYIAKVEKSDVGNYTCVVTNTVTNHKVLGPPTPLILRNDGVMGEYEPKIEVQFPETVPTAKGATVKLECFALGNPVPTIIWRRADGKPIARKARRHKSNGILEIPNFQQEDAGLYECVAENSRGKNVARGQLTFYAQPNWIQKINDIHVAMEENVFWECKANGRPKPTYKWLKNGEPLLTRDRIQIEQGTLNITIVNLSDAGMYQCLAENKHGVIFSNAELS", "protocol": "as §1, §2"}, "[5]": {"target": "T5, Human CNTN4 domain sample Full (Domain 1 to Domain 10) (human, UniProt Q8IWV2 19-1000, limits assumed)", "T5 construct": "domain: Domain 1 to Domain 10 (Ig1 to Ig6 and FN1 to FN4)", "T5 sequence (looked up)": "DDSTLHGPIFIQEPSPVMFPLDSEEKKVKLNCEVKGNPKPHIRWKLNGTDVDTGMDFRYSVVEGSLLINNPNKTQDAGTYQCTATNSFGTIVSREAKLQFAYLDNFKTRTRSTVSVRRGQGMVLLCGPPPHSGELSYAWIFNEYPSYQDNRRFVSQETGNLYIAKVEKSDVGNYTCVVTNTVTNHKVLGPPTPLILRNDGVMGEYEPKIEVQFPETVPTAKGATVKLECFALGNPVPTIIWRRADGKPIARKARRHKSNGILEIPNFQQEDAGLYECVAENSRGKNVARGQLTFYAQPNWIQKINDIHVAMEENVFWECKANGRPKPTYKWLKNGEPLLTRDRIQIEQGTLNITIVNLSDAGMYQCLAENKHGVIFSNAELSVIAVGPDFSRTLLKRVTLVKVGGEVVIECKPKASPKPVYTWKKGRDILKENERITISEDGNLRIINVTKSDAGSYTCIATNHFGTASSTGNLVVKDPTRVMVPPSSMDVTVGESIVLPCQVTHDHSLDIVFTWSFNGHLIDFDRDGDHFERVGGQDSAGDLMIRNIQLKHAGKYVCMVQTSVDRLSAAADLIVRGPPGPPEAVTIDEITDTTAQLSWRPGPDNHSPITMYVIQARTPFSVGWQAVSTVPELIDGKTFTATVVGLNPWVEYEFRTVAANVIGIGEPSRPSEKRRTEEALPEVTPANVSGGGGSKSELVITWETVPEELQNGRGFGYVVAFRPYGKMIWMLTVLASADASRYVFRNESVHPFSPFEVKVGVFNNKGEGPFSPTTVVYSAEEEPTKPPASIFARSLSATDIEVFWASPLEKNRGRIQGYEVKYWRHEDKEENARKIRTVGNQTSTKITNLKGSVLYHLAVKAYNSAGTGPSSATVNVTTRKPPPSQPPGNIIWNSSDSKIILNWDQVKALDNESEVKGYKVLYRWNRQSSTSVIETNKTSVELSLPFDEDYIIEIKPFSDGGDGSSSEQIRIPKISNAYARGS", "protocol": "as §1, §2"}, "[6]": {"target": "T6, Human CNTN4 domain sample D1-8 (human, UniProt Q8IWV2 19-799, limits assumed)", "T6 construct": "domain: Domain 1 to Domain 8", "T6 sequence (looked up)": "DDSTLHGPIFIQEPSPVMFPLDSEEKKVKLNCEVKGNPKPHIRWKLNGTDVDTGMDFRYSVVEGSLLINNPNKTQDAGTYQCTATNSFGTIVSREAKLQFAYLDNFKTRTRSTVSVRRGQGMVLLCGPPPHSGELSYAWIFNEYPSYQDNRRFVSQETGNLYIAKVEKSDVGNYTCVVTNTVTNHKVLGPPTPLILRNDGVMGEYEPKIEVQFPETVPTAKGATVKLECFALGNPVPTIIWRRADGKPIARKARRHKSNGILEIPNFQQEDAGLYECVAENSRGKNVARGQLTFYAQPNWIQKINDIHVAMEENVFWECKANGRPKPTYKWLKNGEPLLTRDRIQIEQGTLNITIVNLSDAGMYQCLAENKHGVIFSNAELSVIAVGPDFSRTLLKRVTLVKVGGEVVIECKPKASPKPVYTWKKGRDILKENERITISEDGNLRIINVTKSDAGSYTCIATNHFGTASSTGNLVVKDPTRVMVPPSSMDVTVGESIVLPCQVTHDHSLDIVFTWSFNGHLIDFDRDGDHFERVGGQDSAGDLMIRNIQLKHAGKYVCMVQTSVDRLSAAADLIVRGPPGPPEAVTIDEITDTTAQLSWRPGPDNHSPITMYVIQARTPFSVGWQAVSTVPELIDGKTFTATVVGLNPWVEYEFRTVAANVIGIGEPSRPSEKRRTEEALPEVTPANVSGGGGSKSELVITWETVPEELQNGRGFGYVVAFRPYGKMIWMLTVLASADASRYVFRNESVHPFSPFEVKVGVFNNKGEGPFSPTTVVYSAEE", "protocol": "as §1, §2"}, "[7]": {"target": "T7, Human CNTN4 domain sample D1-7 (human, UniProt Q8IWV2 19-697, limits assumed)", "T7 construct": "domain: Domain 1 to Domain 7", "T7 sequence (looked up)": "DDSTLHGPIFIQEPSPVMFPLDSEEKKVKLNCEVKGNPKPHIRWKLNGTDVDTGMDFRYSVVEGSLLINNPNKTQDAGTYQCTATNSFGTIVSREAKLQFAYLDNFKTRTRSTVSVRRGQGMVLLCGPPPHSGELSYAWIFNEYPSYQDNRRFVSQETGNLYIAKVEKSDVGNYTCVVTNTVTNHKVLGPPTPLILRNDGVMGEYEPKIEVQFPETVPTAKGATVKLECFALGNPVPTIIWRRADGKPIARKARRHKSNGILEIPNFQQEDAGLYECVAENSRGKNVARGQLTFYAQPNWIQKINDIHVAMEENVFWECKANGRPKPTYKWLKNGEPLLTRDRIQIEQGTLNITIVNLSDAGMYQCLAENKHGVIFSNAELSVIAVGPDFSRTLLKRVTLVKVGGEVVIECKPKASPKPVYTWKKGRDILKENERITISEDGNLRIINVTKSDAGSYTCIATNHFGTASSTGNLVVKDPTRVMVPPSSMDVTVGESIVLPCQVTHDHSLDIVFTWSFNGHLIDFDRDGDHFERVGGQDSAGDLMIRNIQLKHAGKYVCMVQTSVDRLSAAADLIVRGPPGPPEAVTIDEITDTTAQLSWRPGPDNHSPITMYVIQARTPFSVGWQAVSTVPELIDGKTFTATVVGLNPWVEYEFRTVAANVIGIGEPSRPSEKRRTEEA", "protocol": "as §1, §2"}}}
{"binder": "Anti-CNTN4 chicken-human chimeric IgG4 antibody AB1 (antibody, V domains shown, Chicken variable domains of scFv AB1 on human IgG4 constant regions; It was purified on Kappa select resin, so the light chain is kappa; also called anti-CNTN4 antibody AB1; Anti-CNTN4 129 chimeric IgG4 antibody) VH: AVTLDESEGGLQTPGGALSLVCKASGFTFSSFNMFWVRQAPGKGLEYVAEISGGGGSTWYAPAVKGRATISRDNGQSTVRLQLNNLRAEDTGTYYCAKSADTWSYGAATIDAWGHGTEVIVSS VL: ALTQPSSVSANLGETVKITCSGSSGSYGWYQQKSPGSAPVTLIYDNTNRPSDIPSRFSGSGSGSTGTLTITGVRAEDEAVYYCGGYDGSTDVFGAGTTLTVL", "values": [{"measurement": "binding result", "setting": "[1]", "result": "binds"}, {"measurement": "binding result", "setting": "[2]", "result": "no binding"}, {"measurement": "binding result", "setting": "[3]", "result": "no binding"}, {"measurement": "binding result", "setting": "[4]", "result": "no binding"}, {"measurement": "binding result", "setting": "[5]", "result": "binds"}, {"measurement": "binding result", "setting": "[6]", "result": "binds"}, {"measurement": "binding result", "setting": "[7]", "result": "no binding"}]}
